Reference: the DeepSol protein solubility set

test: soluble on expression in E. coli; label from the status in PepcDB or PDB records

Sequence | soluble on expression in E. coli
MAHHHHHHMRKGKSPSSFFSLHKKYLLTGVTILSFIFMFQYKYHEVLTVYEDKTNVQQSSRLFWTRLLFGRTRSRITGRIFNIEIPHSYRLYVYNFFIKYLNINKEEIKYPIESYKSLGDFFSRYIREDTRPIGDLNEYSIVSPCDSEIVDFGELTSNYLDNVKGIKFNIKTFLGSDMIKKYNDDSTSFYYAIFYLSPKKYHHFHAPFNFKYKIRRHISGEVFPVFQGMFKIINNLFDINERVILSGEWKGGHVYYAAISAYNVGNIKIVNDEDLLTNNLRTQLSYMGGDINTKIYDHYKDLEIGDEVGEFKVGSSIIVIFENKKNFKWNVKPNQQISVGERIGGVDQPKQPKNKFIKIRS | soluble
MSLSAKSSLKEVAELAGVGYATASRALSGKGYVSPQTREKVQAAAKELNYVPNQLAKALREHRSALVGVIVPDLSNEYYSESLQTIQQDLKAAGYQMLVAEANSVQAQDVVMESLISIQAAGIIHVPVVGSIAPEGIPMVQLTRGELGPGFPRVLCDDEAGFFQLTESVLGGSGMNIAALVGEESLSTTQERMRGISHAASIYGAEVTFHFGHYSVESGEEMAQVVFNNGLPDALIVASPRLMAGVMRAFTRLNVRVPHDVVIGGYDDPEWYSFVGAGITTFVPPHEEMGKEAVRLLVDLIENPELPTGDVVLQGQVILRGSSTHEGHHHHHH | soluble
FISDLHLEAERPDITRAFLSFLDERARRAEALYILGDFFEAWIGDDGMDAFQRSIAQSLRQVADGGTRIYLMHGNRDFLIGKAFCREAGCTLLPDPSVIDLYGEPVLLMHGDSLCTRDEAYMRLRRWLRNPLTLWVLRHLPLATRHKLARKLRKESRAQTRMKAVDIIDVTPEEVPRVMRGHGVRTLIHGHTHRPAEHPLDIDGQPARRIVLGDWDRQGWALEIDANGHR | not soluble
MKAPELQIQQWFNSATDLTLADLRGKVIVIEAFQMLCPGCVMHGIPLAQKVRAAFPEDKVAVLGLHTVFEHHEAMTPISLKAFLHEYRIKFPVGVDQPGDGAMPRTMAAYQMRGTPSLLLIDKAGDLRAHHFGDVSELLLGAEIATLLGEAAPSVQKQAGTPQGDANCDNDGCTV | not soluble
MPSYKLTYFFFRGLGEPIRLLFHLAGVQFEEVRMNPDQTWLDIKDSTPMKQLPVLNIDGFELPQSGAILRYLARKFGFAGKTPEEEAWVDAVHDLFKDFLAEFKKFAAERRSGKSAEEVEKFRSEFFLPARNTYFNILNGLLEKSNSGFLIGSDITFADLVVVDNLLTLKNYGLFDESEFTKLAALREKVNSYPGIKEYIAKRPVTEY | soluble
MPNSEPASLLELFNSIATQGELVRSLKAGNASKDEIDSAVKMLVSLKMSYKAAAGEDYKADCPPGNPAPTSNHGPDATEAEEDFVDPWTVQTSSAKGIDYDKLIVRFGSSKIDKELINRIERATGQRPHHFLRRGIFFSHRDMNQVLDAYENKKPFYLYTGRGPSSEAMHVGHLIPFIFTKWLQDVFNVPLVIQMTDDEKYLWKDLTLDQAYGDAVENAKDIIACGFDINKTFIFSDLDYMGMSSGFYKNVVKIQKHVTFNQVKGIFGFTDSDCIGKISFPAIQAAPSFSNSFPQIFRDRTDIQCLIPCAIDQDPYFRMTRDVAPRIGYPKPALLHSTFFPALQGAQTKMSASDPNSSIFLTDTAKQIKTKVNKHAFSGGRDTIEEHRQFGGNCDVDVSFMYLTFFLEDDDKLEQIRKDYTSGAMLTGELKKALIEVLQPLIAEHQARRKEVTDEIVKEFMTPRKLAAALEHHHHHH | soluble
LPNITILATGGTIAGGGDSATKSNYTVGKVGVENLVNAVPQLKDIANVKGEQVVNIGSQDMNDNVWLTLAKKINTDCDKTDGFVITHGTETMEETAYFLDLTVKCDKPVVMVGAMRPSTSMSADGPFNLYNAVVTAADKASANRGVLVVMNDTVLDGRDVTKTNTTDVATFKSVNYGPLGYIHNGKIDYQRTPARKHTSDTPFDVSKLNELPKVGIVYNYANASDLPAKALVDAGYDGIVSAGVGNGNLYKSVFDTLATAAKTGTAVVRSSRVPTGATTQDAEVDDAKYGFVASGTLNPQKARVLLQLALTQTKDPQQIQQIFNQY | soluble
MNTKKFAKVNEQIPGPKAASLLERRQNIVPKGVSNGIPTFVQSANGALVTDVDGNQYIDFAGAIGTINVGHCHPAVKEALHKQVDQYIHTGFNVMMYEPYIELAEKLAALAPGSFDKQVLFLNSGAEAVENAVKIARKYTKRPGIIAFSKGFHGRTLMTMTMTSKVKPYKFGFGPFAPEVYKAPFPYEYRCPEGLTEEQYDDFMIEEFKNFFISEVAPETIAAVVMEPVQGEGGFIVPSKKFAQEVRNICSEHGILFVADEIQTGFSRTGKYFAIDHYDVVPDLITVSKSLGAGVPISGVIGRKEIMNESAPGELGGTYAGSPLGCAAALAVLDVIEKENLNDRAIELGKVVMNRFEEMKNKYNCIGDVRGLGAMCAFELVQDRKTKTPDKTLTANLCTEANKRGLLLLSAGTYGNVIRVLMPLVITDEQLEEGLTIIEESLQICYEKANTARV | not soluble
MGSDKIHHHHHHMKIRLTQLQCSSSSVTVDINDWVIEPQQSWGVFSTEGDVGALLGQLLTQQIDAQTLTYSGDIIGVTPASVALVSLLEQQSLLEAILEQDDSESLGYTDPKTTVFGVVFNQCHDNDLTHQLLQQLDLTHLSLSPFAQLSTGEGRRVMLARAVATQVPFLVLDEPYAGLDVAHRQTLTEYLQQLSQTKQILVVVSREEDMPDWIEHVAMFSHGKLDTMMTKSQWDNHPVIAQLTAQAGQQSDDILALIRRHRHKPLFANPVFQLNNGRVAYSDKVIFSGVNWRIDNGVHWQVKGPNGCGKSTLLGLIFGDHPQCYSNDIDIFGNKRGSGESIWEIKKHIGMVSSALHLQYRVNCSALDVIVSGFYDSIGLYQKPTAQQISVATEWLAILHMGHLSKTAFRQLEYGQQRLLLIARAIVKQPTLLILDEPYQGLDYLGRRLIKNALELIAKEHLSQLLYVSHYQEDSLDSIQHYIEFVKDENQDGYRAVVSQG | not soluble
MNTMEEKYILSDRGKVYYWIKESNSVFAKNLIFLPGLTANHHLFDFQIQYFSKNHNVLVWDAPAHGKSRPYLDFSYSNLVEELKVILDKQNMKKVVLIGQSAGGFVAQSFIVKYPNMVEGLMMIGTCPYGTDYYSKSDIFWLKQTEWMLKLFPDKLLRNIISKMCGATSEGRRSMLKMLEGYEKKELCHLMYLGFAGFIPEIQDLNIHCPVCLVVGDKDKTGKVRKYNEQWHNKTGYPLHIIKNASHNVNVDKPNELNQIMDIFIKQLNI | not soluble
PKYQSTAALLVNRSQDDTAATALNDQQADVGLIYTYKDLITRPVILNKVAKELKSTYPTLTSTALAKMITVSSTTNSQIFSIAVRSTSSQEAKDIANETASVFKNEAVKLMGKTISNVTIVSSGLKNNTPVFPNTK | not soluble
GPGSMSGAGNLRSNRRREMDYMRLCNSTRKVYPSDTVAEFWVEFKGPEGTPYEDGTWMLHVQLPSDYPFKSPSIGFCNRILHPNVDERSGSVCLDVINQTWTPMYQLENIFDVFLPQLLRYPNPSDPLNVQAAHLLHADRVGFDALLREHVSTHATPQKALESIPEAYRPHDNTHEEEPDEANAKDTASDGPVNAGHSKGLTDSSVTPTEDHRVMHDDIAIDGDEDVEAEYEPEEIDL | soluble
MDRRQKRLIFSTITSKMNLSEEVDLEDYVARPDKISGADINSICQESGMLAVRENRYIVLAKDFEKAYKTVIKKDEQEHEFYK | soluble
MSNPEQHIQDLALEEVMGDRFGRYSKYIIQERALPDVRDGLKPVQRRILFAMNVEGNTAEKGFRKSAKTVGNVIGNYHPHGDSSVYEAMVRMSQDWKVRNMLIEMHGNNGSVDGDPPAAMRYTEARLSPISAELLRDIEKETVDFIPNFDDTSSEPTVLPARFPNLLVNGSTGISAGYATDIPPHNLTEIIEAVIKRLDNPLCTTDDIMKIVKGPDFPTGGIIQGIDGIRKAYQTGKGRVVVRSKTEIEDIRGGRKQITIHEIPYEVNKANLVKRMDELRIEKKIEGISEVRDETDRTGLRIAVELKKDANAEGVLNYLFKNTDLQVSYNFNMVAINKKRPELMGIIPMLDAYIEHQKEIITKRSEYDIRKARARQHILEGLIKALSILDEVIKLIRGSKDKRDAKLNLQTKYDFSEKQAEAIVSLQLYRLTNTDIHELQSEAKSLAEQISVLEKILGDEAELIAVLKEELAEIKKKYKTARRTEVQAEIAEIKIDTEVLVANEDVIVSVTKEGYVKRTSQRSYAASNGAELAMKEADHAIFIQKMNSLDSLLLFTSKGNFIYRPVHELPDIRWKNLGDHVSHLASDLSAGEEIRSAIAIQAFTEEKRFLFVTKNGMTKQSAITNYKPQRYSKSMMAIKLKGDDELLSVHLIDGTEDIFLATKNGYGLRYSITEIPESGARTAGVKAINLKQDDIVIGGIVLMPNEQKHILLATQRGSLKQMKASEFEPISRAKRGLLMLRELKSNPHRFIGITLADNNDHLFIETNTDQIVEIDVANLRITDRYSNGSFVLDETMEGEPTSIWLAIPEIKDTSDAKEE | not soluble
MSLTVSFVRIDDRMIHGQTVTRWAKEYPCDGLIAVNDAAAKNKVLIQAYKGASDKKTFVWSKEAFAAKSQKVSDSDSRYFLITKNPVDMKEILVDQGFVPGEVKEIIVGPANDRPGAVKLGNNQSITQEEADAIEAIEKAGYKVKFQLLPDVSIGYWSDFKGKFGEGHHHHHH | soluble
GMTSRSPFESFVWQSEIFNCQSNDIDAFYAQLAEEVNRLGLKKNTLGSVDSFAINLYQSASQRSDLPSLLISSGFHGEEAAGPWGMLHFLRGLQPALFERVNLSLLPLVNPTGFKAGHRFNRFGENPNRGFTLENGKPTPNEHTSLEGKLLLEHAQLLCAASRDGILTCHEDVLMNETYVYSFEPTQTPGRFSLGLRDALGQYFKLAKDGFIDECPVTDGVIFNHFDTSFEAFLVRSGAKLAACSETPGQEDFDRRVQANSAAMGQFIAHCAPIL | soluble
GMNISNLINADVDEKGFVSDKLRDNFFQIVRNRPENRTCFDCESRNPTWLSLSFAVFICLNCSSDHRKMGVHISFVRSSDLDKFTPIQLVRMDIGGNGRARNYFKQVLGVNFSPKTKEYASSICGRQYKQILDSEISE | soluble
MSLAPPEGNPAAGKVAAGLCRTCHGLNGFARIPIAPHIGGEHPSYIRHQLEAFRSGTRQHEIMSVVAASLSDAQIADLSAWFAMQKIHVALKPGVDPHAAPEACALCHGADGVAVLEDAPNLAGENSVYLETQLKAFRTGKRTHEIMSPIAAELTDAEIRAAADWYAAVQLEIDEGHHHHHH | not soluble
MDSARTFESIVIIFNPNSTGDAPELAQQLHGKLKELLTYQPEITLQPTEHAGHAVDLAREAASKGGDVLVVSVSGDGGYNEVVNGVMQADNPRAVAAVLAAGNANDHSRIIGTKPLEEAIAEGRVHNIDLLRIHTGQKENEPLEYAHSYIGFGLTPVVATELEKGSKGALKEMVTVIKSFSEFQPFAIRQSDGKRRKFDSLVFANINEMAKYATLSEAEDHPSDGKFEVIVFPHMPKWRVLLTALKATTQGLGDQPSVSSYEFTTLKPLPYQMDGEVKSVEANVKVTVESAPQALATLG | soluble
KGPNLTEISKKITESNAVVLAVKEVETLLTSIDELAKAIGKKIKSDVSLDNEADHNGSLMSGAYLISTLITKKISAIKDSGELKAEIEKAKKCSEEFTAKLKGEHTDLGKEGVTDDNAKKAILKTNNDKTKGADELEKLFESVKNLSKAAKEMLTNSVKELTSP | soluble
MAHHHHHHMNTLGSSGSAGAEAPLVGGPDALTLQTINEQQLIILRQKELVSTLKECVEELGAQLRRAGVKPLEAAQKEDGCKGTLSYVSEMQLRRRVRTLEDENKKLSDLVDELRAEVSAISAQLCAQQLHTQSEKDVWKAKVSSAEAKSVATAHLLEATGKRNQQLVHHLETLRREGEVSAYECTQWRSLATTAVSHLDHANQRYARAQINSIEEDVHRYAVNRLRLVRVAASASLSLDSGTPEETRKIWSRSAQLPKLHPAPQVFQQQQQEPVCSPLHVSYKRPLSQLLPCQPPQPTTSYSLPPPTAEHVNAETHLSPSHCAALAQT | not soluble
